# Data: patent US6355256B1, “Compositions containing a p53 derived protein or peptide, an adjuvant, and interleukin-12 and uses thereof” (Ludwig Institute for Cancer Research, priority 1994, dated 2002)
# “Also recorded” adds a separate entry of the source. No end group written: not given here.
# B1: IL-12: the cytokine interleukin-12 (protein, UniProt P29459 23-219; P29460 23-328, looked up)
# Interleukin-12 subunit alpha: RNLPVATPDPGMFPCLHHSQNLLRAVSNMLQKARQTLEFYPCTSEEIDHEDITKDKTSTVEACLPLELTKNESCLNSRETSFITNGSCLASRKTSFMMALCLSSIYEDLKMYQVEFKTMNAKLLMDPKRQIFLDQNMLAVIDELMQALNFNSETVPQKSSLEEPDFYKTKIKLCILLHAFRIRAVTIDRVMSYLNAS
# Interleukin-12 subunit beta: IWELKKDVYVVELDWYPDAPGEMVVLTCDTPEEDGITWTLDQSSEVLGSGKTLTIQVKEFGDAGQYTCHKGGEVLSHSLLLLHKKEDGIWSTDILKDQKEPKNKTFLRCEAKNYSGRFTCWWLTTISTDLTFSVKSSRGSSDPQGVTCGAATLSAERVRGDNKEYEYSVECQEDSACPAAEESLPIEVMVDAVHKLKYENYTSSFFIRDIIKPDPPKNLQLKPLKNSRQVEVSWEYPDTWSTPHSYFSLTFCVQVQGKSKREKKDRVFTDKTSATVICRKNASISVRAQDRYYSSSWSEWASVPCS
# Experiments:
# [1] = test system: P1-HTR cells pulsed with peptide; experiment: Generation of peptide-specific CTLs after immunization with peptide, adjuvant and IL-12 (51Cr release assay); type: cell-based, BALB/C mice
# Meth A sarcoma [2] = experiment: Suppression of growth of established Meth A tumors by peptide in adjuvant plus low dose IL-12; type: in vivo, BALB/C mice; conditions: for suppression of tumor growth: peptide in QS-21 or QS-21 alone at days 7 and 14 after Meth A challenge, IL-12 1 ng, 4 times a week for two weeks from day 7
# Method: As with the prior experiments, female BALB/C mice were injected with 5×10^4 Meth A cells at day 0. The mice received two injections of the mutant peptide in QS-21, the wild type peptide in QS-21, or QS-21 alone in the same manner described in Example 3, at weekly intervals. At day 7, the mice began receiving injections of 1 ng of IL-12 (4 times a week, for two weeks).
# FIG. 4A resulted from QS-21 plus the mutant peptide followed by injections of IL-12. FIG. 4B resulted from QS-21 plus peptide, followed by injections with IL-12. FIG. 4C resulted from QS-21 alone followed by injections of IL-12.
# Meth A sarcoma [3] = experiment: Anti-tumor effect of IL-12 on established Meth A sarcoma in mice (tumor diameter); type: in vivo, BALB/C mice
# Method: The in vivo model employed used the transplantable, methylcholanthrene-induced sarcoma “Meth A.” This is a sarcoma of BALB/C (murine) origin, passaged as an ascitic tumor. See Old, et al, Ann. N.Y. Acad. Sci 101:80-106 (1962), incorporated by reference in its entirety.
# BALB/C female mice were injected intradermally with 5×10^4 Meth A cells on day 0. Seven days later, a treatment regime began, wherein the animals received doses of IL-12, 4 times a week. Control animals received no IL-12. The remaining animals received 1 ng, 10 ng, 100 ng, or 500 ng of IL-12 in each dose, administered by intraperitoneal injection.
# The effect of the IL-12 on the induced tumors was observed by measuring the diameter of the tumors at the end of the treatment period. FIGS. 1A, 1B, 1C, 1D and 1E show this. The panels show results with doses of 0 ng, 1 ng, 10 ng, 100 ng, and 500 ng, respectively.
# The effect of the IL-12 was abolished by administering monoclonal antibodies against CD8 molecules, but was not affected via administration of anti-CD4 mAbs.
# Meth A sarcoma [4] = experiment: Timing of IL-12 administration relative to Meth A challenge; type: in vivo, BALB/C mice; conditions: 100 ng IL-12 at day -14, day 0 or day 7 relative to Meth A challenge
# Method: The importance of timing in the administration of IL-12 was then studied. In these experiments, female BALB/C mice were again injected with 5×10^4 Meth A cells, as in Example 1 (day 0). Injections of 100 ng IL-12 were administered at day “−14” (i.e., 14 days before challenge with the tumor cells), day 0, or day 7 (i.e., 7 days after challenge) as in Example 1.
Molecule,"CTLs elicited following immunization ([1]; 100 μg peptide twice at weekly intervals, regardless of the adjuvant (QS-21 or IFA) or treatment with IL-12)",suppression of tumor growth (Meth A sarcoma [2]),"optimal dose of IL-12 for the generation of CTLs ([1]; IL-12 0.1, 1, 10 or 100 ng, four times over two weeks, with peptide in QS-21 or IFA) [ng]","effect of higher doses of IL-12 on generation of CTLs ([1]; IL-12 doses above 1 ng, with peptide in QS-21 or IFA)","anti-tumor effect (diameter of the tumors at the end of the treatment period) (Meth A sarcoma [3]; IL-12 1, 10, 100 or 500 ng i.p., 4 times a week from day 7 after 5×10^4 Meth A cells intradermally)",effect of the IL-12 on tumors when anti-CD4 mAbs are administered (Meth A sarcoma [3]; with anti-CD4 mAbs),effect of the IL-12 on tumors when monoclonal antibodies against CD8 are administered (Meth A sarcoma [3]; with anti-CD8 mAbs),effectiveness by timing of administration (Meth A sarcoma [4]),"stimulation of an immune response when used alone (Meth A sarcoma [2]; each component alone, summary of the examples)"
"KYMCNSSCM (cysteine pairing not given here) [wild type peptide, wild type counterpart of peptide 234 CM]",No CTLs were elicited,did not lead to suppression of tumor growth,–,–,–,–,–,–,–
B1,–,strong suppression of tumor growth; also recorded: growth suppressive effect,1,suppressive effect,dose dependent anti-tumor effect,not affected,abolished,most effective after the tumor had become established; also recorded: particularly effective after tumors have already formed,none
